The results in this text go back to patent publication EP3196312B1, “EFFICIENT CONVERSION OF METHYLGLYOXAL INTO HYDROXYACETONE USING NOVEL ENZYMES AND APPLI CATIONS THEREOF” (Metabolic Explorer, priority 2016, dated 2017).

Data set [1] deals with CC(=O)C=O. The data set is described as follows: Methylglyoxal reductase kinetic parameters of purified enzyme (NAD(P)H consumption at 340 nm). Conditions: other: substrate methylglyoxal 0.1-40 mM, cofactor NADH, 100mM MES-KOH (pH6.5) 0.1mM FeSO4 30mM ammonium sulfate, 30°C, pH 6.5. The class given is biochemical, Escherichia coli. Here is the method:
For strain 14, the purification protocol was previously described in patent application WO 2015/173247. Table 3: Protein storage buffer
(§1) Methylglyoxal reductase activity (MGR) was determined by measuring the consumption of NAD(P)H at 340 nm on a spectrophotometer at 30°C (λ340 = 6290 M^-1 cm^-1). The reaction mixture (1mL) containing assay buffer and purified enzyme was incubated for 5 min at 30°C. Then, 0.1-40 mM methylglyoxal was added to start the reaction. One unit of enzyme activity was defined as the amount of enzyme catalyzing the decrease of 1µmol of NAD(P)H per min. Kinetic parameters were determined with Sigmaplot.

The subject of data set [2] is CC(=O)C=O. Described as above. The class given is biochemical, Escherichia coli. The note with it: other: substrate methylglyoxal 0.1-40 mM, cofactor NADPH, pH 7.5. Here is the method:
Except for the strain 18, the proteins were purified from the crude cell-extract by affinity on a Profinity column (BIORAD, Bio-Scale Mini Profinity exact cartridge 5 ml) according to the protocol recommended by the manufacturer. The crude extract was loaded on a 5 ml Profinity exact cartridge equilibrated with 100 mM potassium phosphate pH 7.6. The column was washed with 10 column volumes of the same buffer and incubated 30min with 100 mM potassium phosphate pH 7.6, 100 mM fluoride at room temperature. The protein was eluted from the column with 2 column volumes of 100 mM potassium phosphate pH 7.6. The tag remained tightly bound to the resin and the purified protein was released. The fractions containing the protein were pooled, concentrated and loaded on a gel filtration column (Superdex 200 10/300 GL column, GE Healthcare) equilibrated with different storage buffers (Table 3). Protein concentration was measured using the Bradford protein assay.
as §1

As to “Escherichia coli GldA (glycerol dehydrogenase) variant GldA*(A160T), SEQ ID NO: 17 (Escherichia coli K-12; A160T)”, in data set [1], the Km was found to be 3.17 mM and the kcat/Km turned out to be 7800 M⁻¹ s⁻¹.

Regarding “Escherichia coli YdjG variant YdjG*(D232E), SEQ ID NO: 101 (Escherichia coli K-12; D232E)”, in data set [2] (20mM Hepes (pH7.5), 30°C), the Km is 3.25 mM and the kcat/Km was found to be 10 M⁻¹ s⁻¹. Turning to “Escherichia coli YqhD variant YqhD*(G149E), SEQ ID NO: 9 (Escherichia coli K-12; G149E)”, in data set [2] (20mM Hepes (pH7.5) 0.1mM ZnSO4, 30°C), the Km stood at 2.92 mM.
